Entries after “also recorded” stand apart in the source; their conditions may differ.
Experiments:
[1] = molecular target: T1, IAPP 1-37 (Homo sapiens, UniProt P10997); assay: Circular dichroism (CD): IAPP random coil to β-sheet conformational transition; settings: for CD activity of modified or truncated tripeptides compared with ANF: significantly lower molar ratios than ANF
T1 sequence (P10997 34-70): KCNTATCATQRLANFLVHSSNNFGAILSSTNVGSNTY
Source text: 1. Circular Dichroism (CD): Amyloidogenic peptides and proteins undergo a conformational transition from a native to β-sheet conformation. […] In the case of peptides such as Aβ and IAPP, the non-fibrillar forms are essentially random coils that subsequently convert to a β-sheet under different conditions of pH and concentration.
CD provides a global view of the peptide secondary structure over an extended time course that can be used to monitor the amyloid conformational transition (L e. , diagnostic absorption minima for β-conformation at 218 nm). IAPP is initially treated with hexafluroisopropanol (HFIP) and trifluroacetic acid (TFA), to ensure it is in a monomeric form. IAPP 1-37 (50 μM) in the presence of inhibitors (50 μM-1.0 mM) are compared to controls, with spectra collected twice daily for a period of 72 hours. (β-sheet conversion and precipitation occurs at 48-72 hrs depending on conditions used.) Inhibitors can be evaluated for their ability to maintain IAPP in a random or non-β conformation. This can be determined by direct comparisons of the spectra obtained, and by quantitative analyses using deconvolution algorithms (e.g., Jasco J720 spectropolarimeter contained in the inventor's laboratory, and equipped with Spectra Manager).

[2] = molecular target: T1, IAPP 1-37; assay: Negative stain electron microscopy of IAPP amyloid fibrils; settings: negatively-stained preparations, IAPP + peptide, molar ratio 1:10
Source text: 2. Negative Stain Electron Microscopy: IAPP amyloid morphology and relative density of the fibrils can be examined by transmission EM techniques. This provides information of the morphology of the aggregates formed (e.g., amorphous, fibrillar, truncated/protofilament structures, and/or abnormal lateral aggregation profiles). In addition, scanning of multiple grids and samples can be performed by an experienced EM technician who will assess the relative amount of fibrils formed in the presence of each inhibitor. This supporting evidence can be used to rank the relative activities of the inhibitors. Aliquots are taken from the samples used for CD analysis, and applied to pioloform coated grids, blotted dry, and stained with phosphotungstic acid (pH 7.0).

[3] = system: rat insulinoma line (RIN-1056A) exposed to exogenous IAPP 1-37; assay: IAPP amyloid toxicity assay in RIN cells (AlamarBlue cell viability); type: cell-based; settings: molar ratio of 1:20 [IAPP:inhibitor]
Protocol: 3. IAPP Amyloid Toxicity: Amyloid fibril cytotoxicity may be due to an apoptotic mechanism and/or mechanical disruption of the plasma membrane. The ability of inhibitors to prevent toxicity in cells exposed to exogenous amyloid is another indication of activity that is assessed. A rat insulinoma line (RIN-1056A) having β-cell-like characteristics is exposed to 10 μM IAPP 1-37 with inhibitors added simultaneously to the medium at 1-20 fold excess. IAPP and inhibitors are not pre-mixed, but are added separately to the cell culture medium to maximize the similarities to conditions in vivo.
Toxicity is assayed both over the short (sampling every 2 hr over an 8-10 hr period) and long term (every 12 hr for a period of 6-7 days). Data from these investigations will indicate if the inhibitors are able to regulate this more physiological action of IAPP.

[4] = molecular target: T2, full-length IAPP1-37 (Homo sapiens, UniProt P10997); settings: earlier work, Fraser WO 02/24727; cited from earlier work
T2 construct: When combined with full-length IAPP1-37 at relatively low molar ratios of 1:5 and 1:1
T2 sequence (P10997 34-70): T1 sequence (P10997 34-70)

Row | Substance | relative level/density and morphology of IAPP amyloid fibrils (EM) [2] | activity in the RIN-cell toxicity assay using exogenous IAPP [3] | inhibitory activity of hexapeptide fragments [4] | also measured
1 | NFL: truncated tripeptide of hexapeptide ANFLVH (Tripeptide derived from human IAPP) | active |  |  | CD activity of modified or truncated tripeptides compared with ANF [1]: similar, but more potent, activities at significantly lower molar ratios
2 | ANG: tripeptide ANF substituted with G at its third position (Tripeptide derived from human IAPP) | lower activity based upon the presence of multiple aggregate forms | lower activity in the toxicity assay |  | 
3 | ANFL: tetrapeptide sub-fragment of hexapeptide ANFLVH (Tetrapeptide derived from human IAPP) |  | showed activity |  | 
4 | ANFLVH: original hexapeptide from the IAPP 8-20 domain (13-18), disclosed in WO 02/24727 (Hexapeptide derived from human IAPP) |  |  | displayed inhibitory activity | 
5 | NFLVHS: hexapeptide from the IAPP 8-20 domain, disclosed in WO 02/24727 (Hexapeptide derived from human IAPP) |  |  | displayed inhibitory activity | 
6 | GAILSS: hexapeptide from the IAPP20-29 region, disclosed in WO 02/24727 (Hexapeptide derived from human IAPP) |  |  | displayed inhibitory activity | 
7 | GNF: tripeptide ANF substituted with G at its first position (Tripeptide derived from human IAPP) | significantly reduced density of fibrils | more activity than ANG (SEQ. ID. NO. 27) or ANF (SEQ. ID. NO. 24) |  | CD activity of modified or truncated tripeptides compared with ANF [1]: similar, but more potent, activities at significantly lower molar ratios
8 | SNNFGA: hexapeptide from the IAPP20-29 region, disclosed in WO 02/24727 (Hexapeptide derived from human IAPP) |  |  | displayed inhibitory activity | 
9 | ANFLV: pentapeptide sub-fragment of hexapeptide ANFLVH (Pentapeptide derived from human IAPP) |  | showed activity |  | 
10 | AGF: tripeptide ANF substituted with G at its second position (Tripeptide derived from human IAPP) | significantly reduced density of fibrils | more activity than ANG (SEQ. ID. NO. 27) or ANF (SEQ. ID. NO. 24) |  | CD activity of modified or truncated tripeptides compared with ANF [1]: similar, but more potent, activities at significantly lower molar ratios
11 | ANF: truncated tripeptide of hexapeptide ANFLVH, IAPP residues 13-15 (Tripeptide derived from human IAPP) | reduced the relative levels of fibrils, and altered the morphology of the aggregates which were formed; also recorded: reduced the relative levels of fibrils and altered the morphology of the aggregates which were formed | showed activity; also recorded: greater activity than the tetra- or penta-peptide |  | inhibition of IAPP conformational change from random coil to β-sheet (CD) ([1]; combined with IAPP at a molar ratio of 1:10): inhibited this conformational change

— patent US20110269679A1, “INHIBITORS OF AMYLOID FIBRIL FORMATION AND USES THEREOF” (priority 2004, published 2011)
